± gives the standard deviation.
Assay: protein stability index of a GFP-peptide fusion (GPS, HEK-293T) (PSI 1-6); higher = more stable
Details: c terminus: a fixed tail appended
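Further: 24-mer peptide tiles fused after GFP, lentivirally expressed, FACS-sorted into six equal bins by GFP/DsRed ratio, decoded by Illumina sequencing, PSI is the read-weighted mean bin number.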

Sequence TTVVVFVASMVLGECRQMSSSSQI [CLCN6] has a protein stability index (treatment: DMSO) of 3 ± 0.49 and a protein stability index (treatment: MLN4924 1 uM, 8 h) of 3.22 ± 0.24.
TVQIICNTGYRLQNNENNISCVER [CFHR2] gave a protein stability index (treatment: DMSO) of 2.44 ± 0.4 and a protein stability index (treatment: MLN4924 1 uM, 8 h) of 2.64 ± 0.25.
For TYEVRMRTNLPIFKLKESCVRRRY [SNX12], the protein stability index (treatment: DMSO) was 2.6 ± 0.15 and the protein stability index (treatment: MLN4924 1 uM, 8 h) was 2.54 ± 0.23.
For VAFVCAFSEALAEGAVKMGMPSSL [PYCR3], the protein stability index (treatment: DMSO) was 3.46 ± 0.41 and the protein stability index (treatment: MLN4924 1 uM, 8 h) was 2.42 ± 0.36.
Sequence VAKCLIGVNYPKPMVNHAEASRLN [CRY1] has a protein stability index (treatment: DMSO) of 2.5 ± 0.14 and a protein stability index (treatment: MLN4924 1 uM, 8 h) of 2.46 ± 0.38.
VAVQEQEIARREKELEARVRKPAE [FLOT1] showed a protein stability index (treatment: DMSO) of 5.44 ± 0.42 and a protein stability index (treatment: MLN4924 1 uM, 8 h) of 5.31 ± 0.17.
Work on VCIVQKNDTKKMYAMKYMNKQKCV [STK32A] yielded a protein stability index (treatment: DMSO) of 2.21 ± 0.11 and a protein stability index (treatment: MLN4924 1 uM, 8 h) of 2.5 ± 0.45.
In the case of VCYQYPGYRGYQYILECDHHGGDY [CRYBA1], the protein stability index (treatment: DMSO) is reported as 2.35 ± 0.4 and the protein stability index (treatment: MLN4924 1 uM, 8 h) is reported as 2.08 ± 0.18.
Work on VDEAAAESPSFLSLRKGASLSNGQ [NCK2] yielded a protein stability index (treatment: DMSO) of 4.83 ± 0.14 and a protein stability index (treatment: MLN4924 1 uM, 8 h) of 5.08 ± 0.23.
Work on VDSHHEYPAMTFYSPAVMNYSIPS [ESR2] yielded a protein stability index (treatment: DMSO) of 2.8 ± 0.18 and a protein stability index (treatment: MLN4924 1 uM, 8 h) of 2.89 ± 0.24.
VEYFQQSAVAMYMLYEKQKQQNVA [ZBED1] showed a protein stability index (treatment: DMSO) of 2.4 ± 0.18 and a protein stability index (treatment: MLN4924 1 uM, 8 h) of 2.14 ± 0.28.
VFLHLLLLFKLVAPVTFRHHRYDD [CPN1] showed a protein stability index (treatment: DMSO) of 3.12 ± 0.13 and a protein stability index (treatment: MLN4924 1 uM, 8 h) of 3.14 ± 0.23.
Sequence VFSQMIHLNETVKAPDIECVLRCS [FEM1B] has a protein stability index (treatment: DMSO) of 2.13 ± 0.36 and a protein stability index (treatment: MLN4924 1 uM, 8 h) of 2.11 ± 0.35.
Work on VGLAVVNGQLMAVGGFDGTTYLKT [KLHL20] yielded a protein stability index (treatment: DMSO) of 2.69 ± 0.54 and a protein stability index (treatment: MLN4924 1 uM, 8 h) of 2.23 ± 0.19.
For VGTMVGADILAGREDNSGSDVLIG [SLC35F2], the protein stability index (treatment: DMSO) was 4.79 ± 0.26 and the protein stability index (treatment: MLN4924 1 uM, 8 h) was 4.55 ± 0.22.
Work on VHTEFTLRNFNSAKDMKKAVAHMK [MATN2] yielded a protein stability index (treatment: DMSO) of 3.95 ± 0.17 and a protein stability index (treatment: MLN4924 1 uM, 8 h) of 4.03 ± 0.22.
For VHYAKVQLRFQHSQDVSDCYLELF [PLEKHN1], the protein stability index (treatment: DMSO) was 2.88 ± 0.82 and the protein stability index (treatment: MLN4924 1 uM, 8 h) was 2.76 ± 0.52.
In the case of VIFLLLFAPFIVYYFIMACDQYSC [DHCR7], the protein stability index (treatment: DMSO) is reported as 2.41 ± 0.19 and the protein stability index (treatment: MLN4924 1 uM, 8 h) is reported as 2.39 ± 0.33.
For VISCEFAHNSNWYITFQSDTDAQQ [LARP4], the protein stability index (treatment: DMSO) was 2.47 ± 0.23 and the protein stability index (treatment: MLN4924 1 uM, 8 h) was 2.56 ± 0.19.
For VKCNGALINTSDTVQHGAVYSLEP [SDE2], the protein stability index (treatment: DMSO) was 3.57 ± 0.5 and the protein stability index (treatment: MLN4924 1 uM, 8 h) was 3.75 ± 0.33.
Work on VKSIVVKGYNIWTGGPDACLRCWD [TLE6] yielded a protein stability index (treatment: DMSO) of 2.37 ± 0.3 and a protein stability index (treatment: MLN4924 1 uM, 8 h) of 2.24 ± 0.43.
VLAGAAEEGFMTAELAGVIKRLWK [GNAI1] showed a protein stability index (treatment: DMSO) of 2.38 ± 0.34 and a protein stability index (treatment: MLN4924 1 uM, 8 h) of 2.45 ± 0.057.
Sequence VLIRYPNSLDTTSWAWRGPGVLKV [LPCAT4] has a protein stability index (treatment: DMSO) of 2.77 ± 0.23 and a protein stability index (treatment: MLN4924 1 uM, 8 h) of 2.69 ± 0.8.
With VLLMHMPAEQAFWCLVQICEKYLP [TBC1D10A] the protein stability index (treatment: DMSO) was 2.96 ± 0.37 and the protein stability index (treatment: MLN4924 1 uM, 8 h) was 2.88 ± 0.57.
In the case of VLSSTTLLPRQPLPLGIKVYEDET [PALM], the protein stability index (treatment: DMSO) is reported as 4.23 ± 0.21 and the protein stability index (treatment: MLN4924 1 uM, 8 h) is reported as 4.18 ± 0.16.
With VLSVSKILHIPQVTKLCVQFLNDQ [KLHL14] the protein stability index (treatment: DMSO) was 2.52 ± 0.48 and the protein stability index (treatment: MLN4924 1 uM, 8 h) was 2.29 ± 0.35.
Work on VLVEKYGWPHEDAAQFTDFLIPML [SRPK2] yielded a protein stability index (treatment: DMSO) of 2.38 ± 0.26 and a protein stability index (treatment: MLN4924 1 uM, 8 h) of 2.4 ± 0.26.
In the case of VLYPVPLESYEDIHGTLHLERLAY [PRAME], the protein stability index (treatment: DMSO) is reported as 2.31 ± 0.23 and the protein stability index (treatment: MLN4924 1 uM, 8 h) is reported as 2.38 ± 0.36.
Sequence VNDHLLNFVRERTLDKRWRVRKEA [PDS5B] has a protein stability index (treatment: DMSO) of 2.74 ± 0.44 and a protein stability index (treatment: MLN4924 1 uM, 8 h) of 3.08 ± 0.35.
In the case of VNNTTLTNSTPLRAACFDGHLEIV [FEM1C], the protein stability index (treatment: DMSO) is reported as 2.76 ± 0.34 and the protein stability index (treatment: MLN4924 1 uM, 8 h) is reported as 2.61 ± 0.38.
VPVVTPTASTAPPVPATAPSPAPA [SNAP91] gave a protein stability index (treatment: DMSO) of 4.98 ± 0.17 and a protein stability index (treatment: MLN4924 1 uM, 8 h) of 5.05 ± 0.11.
Sequence VQRKSDFDQTVFQEVFEPPHYELC [NETO1] has a protein stability index (treatment: DMSO) of 3.44 ± 0.23 and a protein stability index (treatment: MLN4924 1 uM, 8 h) of 3.62 ± 0.3.
VREIVKECSNIPLSQPQQGEAMLA [GAN] gave a protein stability index (treatment: DMSO) of 4.28 ± 0.37 and a protein stability index (treatment: MLN4924 1 uM, 8 h) of 4.31 ± 0.36.
Work on VRLQSQRPSMASELMPSSRLWSLS [SLC25A39] yielded a protein stability index (treatment: DMSO) of 2.64 ± 0.32 and a protein stability index (treatment: MLN4924 1 uM, 8 h) of 2.58 ± 0.17.
Work on VRYSDCCERVVINVSGLRFETQMK [KCNA4] yielded a protein stability index (treatment: DMSO) of 2.31 ± 0.46 and a protein stability index (treatment: MLN4924 1 uM, 8 h) of 2.33 ± 0.37.
With VSFVERILKSQKERQCALRVFKAR [FBXO39] the protein stability index (treatment: DMSO) was 2.35 ± 0.41 and the protein stability index (treatment: MLN4924 1 uM, 8 h) was 2.55 ± 0.21.
VSLHDRIYVIGGYDGRSRLSSVEC [KLHL12] gave a protein stability index (treatment: DMSO) of 1.96 ± 0.16 and a protein stability index (treatment: MLN4924 1 uM, 8 h) of 2.19 ± 0.17.
With VSSQRFKSSVYRRYNDFVVFQEML [SNX8] the protein stability index (treatment: DMSO) was 2.1 ± 0.21 and the protein stability index (treatment: MLN4924 1 uM, 8 h) was 2.21 ± 0.39.
Sequence VTAGCGFGKDFRKGLLKKGACYGD [PPTC7] has a protein stability index (treatment: DMSO) of 2.79 ± 0.56 and a protein stability index (treatment: MLN4924 1 uM, 8 h) of 2.65 ± 0.11.
In the case of VTGLMEATQMMVDIDGDVLVFLEL [RHOBTB2], the protein stability index (treatment: DMSO) is reported as 3.31 ± 0.2 and the protein stability index (treatment: MLN4924 1 uM, 8 h) is reported as 3.29 ± 0.8.
For VTPEAKDLINKMLTINPAKRITAS [CAMK2D], the protein stability index (treatment: DMSO) was 3.29 ± 0.29 and the protein stability index (treatment: MLN4924 1 uM, 8 h) was 3.33 ± 0.2.
VTQREHSSEHVTESVADLLALEEP [SLC6A17] gave a protein stability index (treatment: DMSO) of 5.3 ± 0.47 and a protein stability index (treatment: MLN4924 1 uM, 8 h) of 5.12 ± 0.3.
Sequence VVKVLLESGASIEDHNENGHTPLM [ANKRD17] has a protein stability index (treatment: DMSO) of 3.17 ± 0.25 and a protein stability index (treatment: MLN4924 1 uM, 8 h) of 3.25 ± 0.26.
VVSTSGEQMKVYKCEHCRVLFLDH [IKZF1] gave a protein stability index (treatment: DMSO) of 2.69 ± 0.4 and a protein stability index (treatment: MLN4924 1 uM, 8 h) of 2.3 ± 0.64.
VWDMRSGQCVQAFETHESDINSVR [GNB5] gave a protein stability index (treatment: DMSO) of 3.48 ± 0.24 and a protein stability index (treatment: MLN4924 1 uM, 8 h) of 3.56 ± 0.15.

Source: the supplement of paper PMC10567573
